Data taken from US20200247855A1 (published 2020).

What was measured:
Test in all cases: BLI
[1] = biological target: T1, CCL3_HUMAN (human, UniProt P10147 24-92)
T1 chain: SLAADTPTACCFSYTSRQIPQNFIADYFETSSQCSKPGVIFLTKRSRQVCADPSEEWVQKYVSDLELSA

[2] = biological target: T2, CCL14_HUMAN (human, UniProt Q16627 22-93)
T2 chain: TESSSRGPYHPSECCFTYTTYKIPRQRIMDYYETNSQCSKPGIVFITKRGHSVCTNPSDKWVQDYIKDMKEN

[3] = biological target: T3, CCL3L1_HUMAN (human, UniProt P16619 24-93)
T3 chain: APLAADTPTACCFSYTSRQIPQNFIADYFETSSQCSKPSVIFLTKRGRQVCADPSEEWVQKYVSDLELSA

[4] = biological target: CCL11_HUMAN (human, UniProt P51671 24-97)
[5] = biological target: T4, CCL19_HUMAN (human, UniProt Q99731 22-98)
T4 chain: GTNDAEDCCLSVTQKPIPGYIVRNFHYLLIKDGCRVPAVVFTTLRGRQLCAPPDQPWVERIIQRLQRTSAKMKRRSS

[6] = biological target: T5, CCL15_HUMAN (human, UniProt Q16663 22-113)
T5 chain: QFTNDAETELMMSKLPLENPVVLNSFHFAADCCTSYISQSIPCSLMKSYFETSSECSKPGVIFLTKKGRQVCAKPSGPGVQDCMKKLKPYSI

[7] = biological target: T6, CCL23_HUMAN (human, UniProt P55773 22-120)
T6 chain: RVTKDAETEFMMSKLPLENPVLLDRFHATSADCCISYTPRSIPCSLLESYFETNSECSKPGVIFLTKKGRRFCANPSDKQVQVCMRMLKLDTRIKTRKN

[8] = biological target: T7, CCL4_HUMAN (human, UniProt P13236 24-92)
T7 chain: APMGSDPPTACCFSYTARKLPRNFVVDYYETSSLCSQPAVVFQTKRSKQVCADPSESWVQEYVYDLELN

[9] = biological target: T8, CCL5_HUMAN (human, UniProt P13501 24-91)
T8 chain: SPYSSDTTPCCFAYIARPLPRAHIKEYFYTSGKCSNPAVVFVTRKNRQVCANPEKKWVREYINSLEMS

[10] = biological target: CCL7_HUMAN (human, UniProt P80098 24-99)
[11] = biological target: T9, CCL27_HUMAN (human, UniProt Q9Y4X3 25-112)
T9 chain: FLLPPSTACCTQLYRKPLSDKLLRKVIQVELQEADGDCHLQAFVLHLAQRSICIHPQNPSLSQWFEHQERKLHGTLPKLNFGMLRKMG

[12] = biological target: T10, CCL8_HUMAN (human, UniProt P80075 24-99)
T10 chain: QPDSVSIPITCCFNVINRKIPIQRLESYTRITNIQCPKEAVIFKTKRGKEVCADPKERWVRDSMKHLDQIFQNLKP

[13] = biological target: T11, CCL17_HUMAN (human, UniProt Q92583 24-94)
T11 chain: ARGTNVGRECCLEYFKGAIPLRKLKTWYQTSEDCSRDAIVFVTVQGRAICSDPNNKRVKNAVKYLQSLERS

[14] = biological target: T12, CCL18_HUMAN (human, UniProt P55774 21-89)
T12 chain: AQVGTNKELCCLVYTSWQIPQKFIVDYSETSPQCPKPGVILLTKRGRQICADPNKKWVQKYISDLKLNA

[15] = biological target: CCL13_HUMAN (human, UniProt Q99616 24-98)
[16] = biological target: T13, CCL21_HUMAN (human, UniProt O00585 24-134)
T13 chain: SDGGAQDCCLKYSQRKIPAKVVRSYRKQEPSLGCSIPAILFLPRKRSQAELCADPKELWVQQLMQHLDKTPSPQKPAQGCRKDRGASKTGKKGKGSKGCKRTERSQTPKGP

[17] = biological target: T14, CCL24_HUMAN (human, UniProt O00175 27-104)
T14 chain: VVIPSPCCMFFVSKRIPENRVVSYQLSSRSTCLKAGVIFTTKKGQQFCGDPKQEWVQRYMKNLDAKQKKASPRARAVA

[18] = biological target: CXCL8_HUMAN (human, UniProt P10145 28-99)
[19] = biological target: CXCL1_HUMAN (human, UniProt P09341 35-107)
Sequence of CXCL1_HUMAN (P09341 35-107): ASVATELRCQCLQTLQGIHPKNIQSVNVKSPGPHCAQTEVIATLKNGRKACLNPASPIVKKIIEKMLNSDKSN

Sequence of CCL11_HUMAN (P51671 24-97): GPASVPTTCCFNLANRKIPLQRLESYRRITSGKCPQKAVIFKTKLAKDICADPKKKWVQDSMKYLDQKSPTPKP
Sequence of CXCL8_HUMAN (P10145 28-99): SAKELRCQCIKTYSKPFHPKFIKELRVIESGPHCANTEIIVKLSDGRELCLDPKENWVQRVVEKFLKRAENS
Sequence of CCL13_HUMAN (Q99616 24-98): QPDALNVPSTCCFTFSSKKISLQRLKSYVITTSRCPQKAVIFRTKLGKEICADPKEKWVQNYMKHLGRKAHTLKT
Sequence of CCL7_HUMAN (P80098 24-99): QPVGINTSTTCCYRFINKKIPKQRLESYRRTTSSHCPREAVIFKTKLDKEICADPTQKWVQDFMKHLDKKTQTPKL

B1: P1243:G4S:P1156 (designed binder)
chain: RNHTEDNSTEYYDYEEARCACPARHLNNTNGTVLKLLGCHYFCNGTLCTAPDGYPCYNLTAQQVRTLTTYPNTSCAVGVCMKGTCVKNGTMEQCFKTPGGGGSADDDNELFTVQYCGMNCTKDEGGTWTGCTGKKEGCKCYHESGKNYGLCLSTEYTDFSQYGNPSDSEIEAAKPKRSDTLSH
B1 showed a Kd [1] of 16.4 nM, a Kd [2] of 1.99 nM and a Kd [3] of 4.06 nM. For the same binder, the Kd [4] was 19.7 nM, the Kd [5] was 2.92 nM and the Kd [6] was 8.71 nM. It also gave a Kd [7] of 0.632 nM, a Kd [8] of 19.4 nM and a Kd [9] of 8.95 nM. It also gave a Kd [10] of 49 nM, a Kd [11] of 24.4 nM and a Kd [12] of 381 nM. For the same binder, the Kd [13] was 3.51 nM, the Kd [14] was 0.543 nM and the Kd [15] was 1.33 nM. It also gave a Kd [16] of 53.8 nM, a Kd [17] of 16.4 nM and a Kd [18] of 7.63 nM. For the same binder, the Kd [19] was 17.4 nM.
